Assay results: US20140275493A1 (Bayer, published 2014)

Biological target: T1, Human TFPI (tissue factor pathway inhibitor) (human, UniProt P10646 29-304, limits assumed)
T1 construct: Coated on Maxisorb plates for the ELISA
T1 sequence (looked up): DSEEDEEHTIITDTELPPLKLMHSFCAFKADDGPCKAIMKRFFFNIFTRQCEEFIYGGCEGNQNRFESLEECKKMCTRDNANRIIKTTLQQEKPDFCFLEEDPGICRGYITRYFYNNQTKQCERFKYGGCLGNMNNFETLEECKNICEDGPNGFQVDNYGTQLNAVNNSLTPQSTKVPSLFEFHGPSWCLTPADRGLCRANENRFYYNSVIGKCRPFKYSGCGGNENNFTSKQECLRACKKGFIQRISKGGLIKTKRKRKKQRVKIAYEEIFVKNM
Test: pH 6.0 TFPI dissociation ELISA, ratio of signals
Experimental: Human TFPI, 1 μg/ml, was used to coat Maxisorb™ microtiter plates. Expression media, 100 μl, from each member of the His scan library, was added to two wells on the plate, in a pair wise fashion. The plate was incubated on a shaker at room temperature for 1 hr. The plate was washed 3× with PBST. PBS (pH 7.0) was added to one well of the pair, 100 mM pH6.0 Citrate buffer was added to the second well of the same pair. The plate was incubated at 37° C. with shaking for one hr. The plate was washed 3× with PBST and developed using amplex red. A pH 7.0/pH 6.0 ratio was established to rank the sensitive muteins. The ratio for wild type 2A8-g200 Fab was 1.0.

B1: 2A8-g200 Fab VL-Y31H (Fab, V domains shown)
VH: EVQLVESGGGLVQPGGSLRLSCAASGFTFSSYGMDWVRQAPGKGLEWVSSIRGSRGSTYYADSVKGRFTISRDNSKNTLYLQMNSLRAEDTAVYYCARLYRYWFDYWGQGTLVTVSS
VL: SYELTQPPSVSVSPGQTARITCSGDNLPKYHAHWYQQKPGQAPVVVIFYDVNRPSGIPERFSGSNSGNTATLTISGTQAMDEADYYCQAWWSSTPVFGGGTKLTVLG
  Ratio pH 7.0/pH 6.0: 6.64
